According to the DeepSol protein solubility set:

Experiment: soluble on expression in E. coli; label from the status in PepcDB or PDB records

MGSDKIHHHHHHMTTRILICDDSALARKQMAKALPPGLADDILFAGDGKEALTILRDQKAELLFLDLNMPELDGYQVLEHIRSEDLPVLTIVVSGDIQPEARERVRKLGAIDFIKKPTDTGVVSRLLKEYGFYRPSELEDTALNDASLHSREAAAPEISVSLSDYLQEISNVAMGRSSDLLARLLKVFVKQPIPKVAFIANSELHMAISAAQRAENYSAVCQGFTGAGIAGEALLLFEDASFREMAELLHYDVLEGESVNVEVLMDMSSILFGAFINGIGDQLDLKLGLGHPTVLGQHRPVNELLDHHSKREEQLLCIEISYALENRDIRCNMLILLTEDSIPFLEKRLAYLVD
soluble on expression in E. coli: not soluble

MKITVLGCGALGQLWLTALCKQGHEVQGWLRVPQPYCSVNLVETDGSIFNESLTANDPDFLATSDLLLVTLKAWQVSDAVKSLASTLPVTTPILLIHNGMGTIEELQNIQQPLLMGTTTHAARRDGNVIIHVANGITHIGPARQQDGDYSYLADILQTVLPDVAWHNNIRAELWRKLAVNCVINPLTAIWNCPNGELRHHPQEIMQICEEVAAVIEREGHHTSAEDLRDYVMQVIDATAENISSMLQDIRALRHTEIDYINGFLLRRARAHGIAVPENTRLFEMVKRKESEYERIGTGLPRPWLEHHHHHH
soluble on expression in E. coli: not soluble

GPGPSRPSASWQNSVSERPPYSYMAMIQFAINSTERKRMTLKDIYTWIEDHFPYFKHIAKPGWKNSIRHNLSLHDMFVRETSANGKVSFWTIHPSANRYLTLDQVFKPLDPGSPQLPEHLESQQKRPNPELRRNMTIKTELP
soluble on expression in E. coli: soluble

MGSSHHHHHHSSGLVPRGSHMKMSFRWYGKKDPVTLEEIKAIPGMQGIVTAVYDVPVGQAWPLENILELKKMVEEAGLEITVIESIPVHEDIKQGKPNRDALIENYKTSIRNVGAAGIPVVCYNFMPVFDWTRSDLHHPLPDGSTSLAFLKSDLAGVDPVADDLNLPGWDSSYSKEEMKAIIENYRQNISEEDLWANLEYFIKAILPTAEEAGVKMAIHPDDPPYGIFGLPRIITGQEAVERFLNLYDSEHNGITMCVGSYASDPKNDVLAMTEYALKRNRINFMHTRNVTAGAWGFQETAHLSQAGDIDMNAVVKLLVDYDWQGSLRPDHGRRIWGDQTKTPGYGLYDRALGATYFNGLYEANMRAAGKTPDFGIKAKTVGTKEG
soluble on expression in E. coli: soluble

LARSMACNSETLSELSFALTVGQKANDCDWFVGNSLIVRLLDMTGELNQKNVYTNRGASGIDGLVATAVGVQLANDKPLLALVGDTSLLYDLNSLALLKQATQPMVVVVMNNDGGGIFDLLPVNEKKKDDFYRMPHQLEFSHAAAMFGLSYHRPETLSCAMSMINDGLEKGIHLIEINTPAGQSGEELTRLFQTIQHAALF
soluble on expression in E. coli: not soluble

MAIRIAINGFGRIGRSVLRALYESGRRAEISVVAINELASAEGMAHLLKYDSSHGRFAWDVRQECDSLYVGDDIIRLIHQSEIEQLPWSELGIDVVLDCSGVYGSREDGEAHVASGAKKVLFAHPGGHDLDATVVYGVNHQDLRAEHRIVSNASCTTNCIIPIIQLLDIAYGIESGTVTTIHSSMNDQPVIDAYHQDLRRTRAASQSIIPVDTKLAAGITRIFPKFCDRFEAISVRVPTINVTAIDLSVSVTHPVGVAEVNQLLQKAARGAFRGIVDYTELPLVSMDFNHDPHSAIVDGTQTRVSGQHLIKTLVWCDNEWGFANRMLDTTLAMAKSGF
soluble on expression in E. coli: not soluble

MGSDKIHHHHHHMWIVLDTNIYFNQWLLEGANFRVFRNFCNNTGATLLLPEVVKQEVQNKYDGELAQARIELDKLAAKFSKLGVECPSNLVVSDDYDFDQLVREQYRNVILVPYSGVAHEQLVEKALAPKLPFREKEKGYRDALMWLSILDYVKESGFKESIHFVNANSKDFYSNKSGGLTLHEDLKDDLRARNMETNIIPYTSLNEFVEGHVLQELHGVDWMDFYSEFNGELDSDVCVEAIAWLDECSLSVLREKLVEANYPGLIMDGVFAASFETWDGVEDSDILAMRKIDEDRYFIDYAFDIRGLEVKLLSSPTSPASGYFGAYIDVEIDNDLATTSFFTRADFKASVVFNITAEVVEDVDVTSFKFRPR
soluble on expression in E. coli: not soluble

MGNTMCPKMESAFSLLGKRWNGLIIHVLMDGPKRFKEITETIPMISQKMLAERLKELEQNEIVERQVLPETPVKVIYTLTEKGTALQAVFQEMQAWADQFCEPGDTVCEEEKLEHHHHHH
soluble on expression in E. coli: soluble

CPDRWMKYGNHCYYFSVEEKDWNSSLEFCLARDSHLLVITDNQEMSLLQVFLSEAFSWIGLRNNSGWRWEDGSPLNFSRISSNSFVQTCGAINKNGLQASSCEVPLHWVCKK
soluble on expression in E. coli: soluble

MPLEASELKPTAGPLEASELKPTAGPLEASELKPTAGPLEASELKPTAGPLEASELKPTAGPLEASELKPTAGPLEASELKPTAGMKKNSYLLSCLAIAVSSACHAEVLTYPDPLGSSQSDFGGTGLLQMPNARIAPEGEFSVNYRDNDQYRFYSTSVALFPWLEGTIRYTDVRTRKYSQWEDFSGDQSYKDKSFDFKLRLWEEGYWLPQVAFGKRDIAGTGLFDGEYLVASKQAGPFDFTLGMAWGYAGNAGNITNPFCRVSDKYCHRAESHDAGDISFSDIFRGPASIFGGIEYQTPWNPLRLKLEYDGNNYQNDFAGKLPQASHFNVGAVYRAASWADLNLSYERGNTLMFGFTLRTNFNDLRPALRDTPKPAYQPAPESEGLQYTTVANQLTALKYNAGFDAPEIQLRDKTLYMSGQQYKYRDSREAVDRANRILVNNLPQGVEKISVTQKREHMAMVTTETDVASLRKQLAGTAPGQSEPLQQQRVEAEDLSAFGRGYRIREDRFSYSFNPTLSQSLGGPEDFYMFQLGLMSSARYWFTDHLLLDGGIFTNIYNNYDKFKSSLLPADSTLPRVRTHIRDYVRNDVYLNNLQANYFADLGNGFYGQVYGGYLETMYAGVGSELLYRPLDACWALGVDVNYVKQRDWDNMMRFTDYSTPTGFVTAYWNPPTLNGVLMKLSVGQYLAKDKGATIDVAKRFDSGVAVGVWAAISNVSKDDYGEGGFSKGFYISIPFDLMTIGPNRNRAVVSWTPLTRDGGQMLSRKYQLYPMTAEREVPVGQLEHHHHHH
soluble on expression in E. coli: not soluble

MGSDKIHHHHHHVMKVLLYSEGKKLFSKSGVGIALKHQMSALDKVGVKYTTNEEDSFDIVHINTIGPGAERVIKKSKKLGIPIIYHTHTTYEDFRNSFTLSNAIAPWLRKRLIKLYSSADFLISPTEYAKKLIMNYGITLPIKAVSNGVDNKKFTRSKSLAESFLSENHIRKPLVVSVGLPFERKGVIDFCQIADTRKDLTFYWFGAKISSLLPAKIRRLLKNPPDNVKFPGFIPQEMIIGPYSACDVFLFPSYEETEGIVVLEALATEAPIVLRDIPVYSEWMKHEENCLKGKDNQEFIKHIDRLLESNNLRKKLSSCGKETALERDLSIIGQKLKNIYLEVLDKKQ
soluble on expression in E. coli: not soluble

AIASKREDEGCARKRRTEAGQRSEDCMNPNSVVISAFKVFQQELDTRYDKYERLVKISRDVTIESKRTIFLLHRVASVPDVEEILNEAEVKLDGVRQKIGQIAEELRGEDLHQFHRAFTPGIQEYVEAVSFHHFIRHRSLISLEEINARLVFIRDNNKAVGEGTFSSPCVLTFQITPTDYLLGVADLTGELMRMCISSVGNGDMDTPFQLSGFLRQIHDGFSLIGNTGPYEVSKKLHALRQSLGKVEDACYTLRVRGSEIPKHMLADVFSSRAAHIDPDDAMA
soluble on expression in E. coli: soluble

MSLKITEIETLRPEEFPNLLWVLVHTDEGITGLGETFYGACSAEAYIHEWAANRLIGEDPLQIDRHAKRLSGYLGFRSAGAEMRGNSALDIALWDIFGKATGQPIYQLLGGKCRDTIRTYNTCAGPHYVRTAKQQSVANWGLANSVSARYDDLNAFLHRADELALDLLDSGITAMKIWPFDPYAEASDGYYISKSDLKRALEPFEKIRRAVGDKMDVMVEFHSLWNLPPALQIAEALREYETFWHEDPIRMDSLSSLKRYAERSLAPVCASETLATRWGFRDLLETNAAGIVMLDISWCGGLSEARKIASMAEAWHLPVAPHDCTGPVVLTASTHLSLNAPNALVQESVRAFYDGWYRDLVTALPTVKDGHITVPDGPGLGLELMPDIRERLTIAVRNTSDCEGHHHHHH
soluble on expression in E. coli: soluble

MNSPDIALIKTYLLTLQDNICAALAQADGHAEFTEECWVREEGGGGRSRVLVNGAVFEQAGVNFSHVSGAMLPASATAHRPELAGRSFQALGVSLVIHPLNPYLPTSHANVRFFIAEKPGEDAVWWFGGGFDLTPYYGFEEDAIHWHQVAHSLCQPFGEQIYPRYKKWCDDYFYIKHRQEARGIGGLFFDDLNSPDFMTCFNFTQAVGDGFLAAYMPIVARRKALGWGDRERQFQLYRRGRYVEFNLVWDRGTLFGLQTGGRTESILMSLPPLVRWEYNYQPEADSAEAALYRDFLPVKDWLAIKGETH
soluble on expression in E. coli: not soluble

MGSDKIHHHHHHGNLGKYSIYYAQNLPHETGTNSVMTAVFKHLGDVYIPYNSLDNDGNKMLETEDKTIHYQAGGMFSPTMITVKSTKDGDVLLSLQSDSQFPYCIYDFTENTYYGFNRAGTLVAEFIDSNTNVLSSHRVSALNTVNKLQNEMYGPIISHRKVPKINLQFIYNFVNEGKFK
soluble on expression in E. coli: not soluble

MSIESKIRQLIDQNGYITCDVLMQEVLNLNPTSYYKQVKSLANEGDFVTAPEISQLFGEIIGLWCIREWQRIGCPKSLSLVELGPGRGLLMRDLLRTAKLVPEFYKALSIELIEINKNFIAYQKANLQDINLPISHQSFVEDIPKKPTIIIANEFFDAIPIKQYIKVKELWYERIFVVQPVDERIKYDKISVNKQLQEYLLCTHIEAKDGAVLEESYKSIEIIKFIAQHLKRLSGSGLIIDYGYDIAPNGRTRYQYNQTLQAVKNHKYCPILENLGEADLSAHVDFYALKTVAKNSKINVIDTISQRDFLIENGILLRKQTLQDKLNDRHLAKFAYREEFKGDTKRSTAAYTLVREDASIGSTYKLPLEVEFGKMSEQAQIIERQVERLISPKQMGELFKVLQIMN
soluble on expression in E. coli: not soluble

MGSDKIHHHHHHMDKLMKICPTREIELQQKAKQLYEEEENRKIAYNAGLVEAEGYCQYTRLKEIIEFAKKCGYKKIGIAFCIGLKREMQTVQKIFEHHGFEVFSVICKNGAMPKSTIGLEASQTISKCSDEVMCNPIGQALFLNEAKVDLNVILGLCVGHDTLAMKYMEAPITTLVVKDRVTGHNPVAAIYNAESYFEKKLFDKDEE
soluble on expression in E. coli: not soluble

MGKEYVVIGLGRFGGSIVRELNALDMDVMAIDHDENRVNEYSDIATHAVVADTTDEAVMKSLGIRNFDHVIVAIGENIQSSTLTTLILKELGVKKVTAKAQNDYHAKILNKIGADTVVHPERDMGRRIAHNVASASVLDYLELADEHSIVELKATEKMAGQSIIDLDIRAQYGINIIAIKRGKEFIISPNPNINLEIGDILIMIGHDNDLNRFEKNIATR
soluble on expression in E. coli: not soluble

MKNQLGQLALEQAKTFGGKLEVQPKVDIKTKHDLSIAYTPGVASVSSAIAKDKTLAYDLTTKKNTVAVISDGTAVLGLGDIGPEAAMPVMEGKAALFKAFAGVDAIPIVLDTKDTEEIISIVKALAPTFGGINLEDISAPRCFEIEQRLIKECHIPVFHDDQHGTAIVVLAAIFNSLKLLKKSLDEVSIVVNGGGSAGLSITRKLLAAGATKVTVVDKFGIINEQEAAQLAPHHLDIAKVTNREFKSGTLEDALEGADIFIGVSAPGVLKAEWISKMAARPVIFAMANPIPEIYPDEALEAGAYIVGTGRSDFPNQINNVLAFPGIFRGALDARAKTITVEMQIAAAKGIASLVPDDALSTTNIIPDAFKEGVAEIVAKSVRSVVLKS
soluble on expression in E. coli: not soluble
